Measurements published in PMC11457862.
pKd: −log10 of the molar value.

Key:
[1] = molecular target: biotinylated human IL-2Rα ectodomain (amino acids 1-217) (human); assay: BLI; same set-up as a1; equilibrium titration of the response at the end of the association phase, first-order fit (Figures 2 and 3, Supplemental Table 1)
[2] = molecular target: biotinylated human IL-2 (amino acids 1-133, C-terminal biotin acceptor peptide) (human) (UniProt P60568); assay: as above
[3] = molecular target: T1, biotinylated human IL-2Rβ ectodomain (amino acids 1-214) (human) (UniProt P14784); assay: BLI; biotinylated human IL-2, IL-2Rα or IL-2Rβ on streptavidin tips (Octet Red96); soluble analyte in PBSA (PBS pH 7.2, 0.1% BSA), 300 s association; kinetic fit, 1:1 binding model; IL-2/602 Cx 2:1 by the legend (Supplemental Figure 2, Supplemental Table 1)
T1 sequence (chain, biotin on the biotin acceptor peptide (BirA ligase)): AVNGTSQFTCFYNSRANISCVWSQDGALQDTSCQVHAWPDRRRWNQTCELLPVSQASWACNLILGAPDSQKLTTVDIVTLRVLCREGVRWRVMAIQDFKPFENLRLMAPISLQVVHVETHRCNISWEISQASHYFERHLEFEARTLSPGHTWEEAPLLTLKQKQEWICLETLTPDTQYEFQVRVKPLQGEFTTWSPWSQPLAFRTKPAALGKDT

[4] = molecular target: biotinylated human IL-2 (amino acids 1-133, C-terminal biotin acceptor peptide) (human) (UniProt P60568); assay: as above
[5] = molecular target: T1, biotinylated human IL-2Rβ ectodomain (amino acids 1-214) (human); assay: BLI; same set-up as a1; equilibrium titration of the response at the end of the association phase, first-order fit (Figures 2 and 3, Supplemental Table 1)
[6] = molecular target: biotinylated human IL-2 (amino acids 1-133, C-terminal biotin acceptor peptide) (human) (UniProt P60568); assay: BLI; same set-up as a5; equilibrium titration, first-order fit (Supplemental Figure 6C,D, Supplemental Table 5)
[7] = molecular target: T1, biotinylated human IL-2Rβ ectodomain (amino acids 1-214) (human); assay: BLI; same set-up as a3; equilibrium titration, first-order fit (Supplemental Figure 4A-C, Supplemental Table 4)
[8] = molecular target: biotinylated human IL-2 (amino acids 1-133, C-terminal biotin acceptor peptide) (human) (UniProt P60568); assay: as above
[9] = molecular target: T1, biotinylated human IL-2Rβ ectodomain (amino acids 1-214) (human); assay: BLI; biotinylated human IL-2 or IL-2Rβ on streptavidin tips; engineered 602 IC variants and controls in PBSA; kinetic fit, 1:1 binding model (Supplemental Figure 5, Supplemental Table 4)
[10] = molecular target: biotinylated mouse IL-2Rβ (mouse) (UniProt P16297); assay: BLI; biotinylated mouse IL-2Rα or IL-2Rβ on streptavidin tips; ICs or 602 Ab in PBSA; kinetic fit, 1:1 binding model (Supplemental Figure 6E,F, Supplemental Table 1)
Chain of biotinylated mouse IL-2Rβ (mouse) (P16297 27-539): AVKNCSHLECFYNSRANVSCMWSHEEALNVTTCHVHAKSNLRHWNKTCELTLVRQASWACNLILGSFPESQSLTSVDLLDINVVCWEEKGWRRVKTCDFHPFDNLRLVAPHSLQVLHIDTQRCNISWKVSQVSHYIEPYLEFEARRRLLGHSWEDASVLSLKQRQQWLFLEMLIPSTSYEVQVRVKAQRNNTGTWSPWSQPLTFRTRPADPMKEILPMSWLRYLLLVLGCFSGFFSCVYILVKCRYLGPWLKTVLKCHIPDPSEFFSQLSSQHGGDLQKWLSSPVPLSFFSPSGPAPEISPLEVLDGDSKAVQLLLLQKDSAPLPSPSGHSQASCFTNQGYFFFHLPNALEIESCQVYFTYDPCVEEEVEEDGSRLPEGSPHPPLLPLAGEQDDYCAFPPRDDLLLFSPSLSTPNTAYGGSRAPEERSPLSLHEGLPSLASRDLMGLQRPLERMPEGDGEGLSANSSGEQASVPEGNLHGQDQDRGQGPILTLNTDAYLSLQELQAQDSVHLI

[11] = molecular target: biotinylated mouse IL-2Rα (mouse) (UniProt P01590); assay: as above
Chain of biotinylated mouse IL-2Rα (mouse) (P01590 22-268): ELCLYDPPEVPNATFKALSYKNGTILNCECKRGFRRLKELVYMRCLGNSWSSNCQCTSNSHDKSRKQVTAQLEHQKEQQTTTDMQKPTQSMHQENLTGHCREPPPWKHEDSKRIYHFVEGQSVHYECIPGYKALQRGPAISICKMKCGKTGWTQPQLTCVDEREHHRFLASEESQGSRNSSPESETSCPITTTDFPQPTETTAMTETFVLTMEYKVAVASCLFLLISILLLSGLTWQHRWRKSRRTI

[12] = molecular target: biotinylated mouse IL-2Rβ (mouse) (UniProt P16297); assay: BLI; same set-up as a7; equilibrium titration, first-order fit (Supplemental Figure 6G,H, Supplemental Table 1)
[13] = molecular target: biotinylated human IL-2Rα ectodomain (amino acids 1-217) (human); assay: BLI; biotinylated human IL-2, IL-2Rα or IL-2Rβ on streptavidin tips (Octet Red96); soluble analyte in PBSA (PBS pH 7.2, 0.1% BSA), 300 s association; kinetic fit, 1:1 binding model; IL-2/602 Cx 2:1 by the legend (Supplemental Figure 2, Supplemental Table 1)
[14] = molecular target: biotinylated human IL-2 (amino acids 1-133, C-terminal biotin acceptor peptide) (human) (UniProt P60568); assay: BLI; biotinylated human IL-2 or IL-2Rβ on streptavidin tips; engineered 602 IC variants and controls in PBSA; kinetic fit, 1:1 binding model (Supplemental Figure 5, Supplemental Table 4)

Chain of IL-2/602 complex (human IL-2 mixed with 602 antibody) (VH): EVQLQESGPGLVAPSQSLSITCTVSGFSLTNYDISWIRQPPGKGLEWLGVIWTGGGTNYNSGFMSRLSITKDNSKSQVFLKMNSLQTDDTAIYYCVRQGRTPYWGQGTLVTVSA
Chain of IL-2/602 complex (human IL-2 mixed with 602 antibody) (VL): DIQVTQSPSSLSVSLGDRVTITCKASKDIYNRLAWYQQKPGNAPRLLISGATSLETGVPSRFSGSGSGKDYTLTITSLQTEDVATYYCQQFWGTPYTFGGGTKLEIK

| Substance | pKd [1] | pKd [2] | pKd [3] | pKd [4] | pKd [5] | pKd [6] | pKd [7] | pKd [8] | pKd [9] | pKd [10] | pKd [11] | pKd [12] | pKd [13] | pKd [14] |
| --- | --- | --- | --- | --- | --- | --- | --- | --- | --- | --- | --- | --- | --- | --- |
| 602 immunocytokine with 25-amino-acid linker (IL-2-(G4S)5-602 light chain + 602 heavy chain) (from UniProt P60568 21-153) | < 5.70 | 6.03 | 8.44 | 7.11 |  |  |  |  |  |  |  |  |  |  |
| 602 immunocytokine with 15-amino-acid linker (IL-2-(G4S)3-602 light chain + 602 heavy chain) (from UniProt P60568 21-153) | < 5.70 | 6.04 |  | 7.05 | 8.08 |  |  |  |  |  |  |  |  |  |
| 602 immunocytokine with 35-amino-acid linker (IL-2-(G4S)7-602 light chain + 602 heavy chain) (from UniProt P60568 21-153) | < 5.70 | < 5.70 | 8.37 | 6.84 | 8.30 | < 5.70 | 8.27 | < 5.70 | 9.59 |  |  |  |  |  |
| Control immunocytokine (IL-2-(G4S)7-light chain of anti-fluorescein antibody 4-4-20 + 4-4-20 heavy chain) (from UniProt P60568 21-153) | 8.28 | < 5.70 | 9.74 |  |  | < 5.70 |  |  |  | < 5.00 | 8.32 | < 5.00 |  |  |
| human IL-2 (amino acids 1-133), soluble (from UniProt P60568 21-153) (ligand) | 8.14 |  |  |  |  |  |  |  |  |  |  |  | 8.49 |  |
| IL-2/602 complex (human IL-2 mixed with 602 antibody) (from UniProt P60568 21-153) |  | 6.99 | 8.41 | 7.97 | 8.28 | 6.77 | 8.22 | 7.13 | 9.52 |  |  |  | 9.26 | 7.88 |
